According to patent US20150203556A1 (UAB RESEARCH FOUNDATION, published 2015):

T1: IL-22 (Homo sapiens (Human), UniProt Q9GZX6 35-179, limits assumed)
T1 construct: also called IL-22 wt
T1 sequence: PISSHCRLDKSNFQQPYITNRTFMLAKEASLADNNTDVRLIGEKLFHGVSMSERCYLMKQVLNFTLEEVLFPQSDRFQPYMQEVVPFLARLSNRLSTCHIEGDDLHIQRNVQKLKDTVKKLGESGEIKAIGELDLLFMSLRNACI

T2: IL-20R1 triple mutant M3 (UniProt Q9UHF4 29-245)
T2 construct: range 29-245; also called IL-20R1 site 3 mutant
T2 sequence (looked up): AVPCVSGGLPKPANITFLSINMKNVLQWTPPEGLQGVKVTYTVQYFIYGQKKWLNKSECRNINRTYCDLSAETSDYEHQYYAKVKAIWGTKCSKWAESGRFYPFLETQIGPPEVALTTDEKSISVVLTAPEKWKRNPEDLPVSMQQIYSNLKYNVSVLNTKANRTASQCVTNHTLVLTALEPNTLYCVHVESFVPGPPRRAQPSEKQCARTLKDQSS

T3: IL-19 (human, UniProt Q9UHD0 25-177)
T3 construct: also called Interleukin-19; IL-19a
T3 sequence: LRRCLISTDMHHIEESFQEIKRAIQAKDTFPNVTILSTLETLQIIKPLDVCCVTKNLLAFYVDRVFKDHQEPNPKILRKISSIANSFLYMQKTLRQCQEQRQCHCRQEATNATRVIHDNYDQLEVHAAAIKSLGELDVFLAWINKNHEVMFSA

T4: IL-20 (human, UniProt Q9NYY1 25-176)
T4 construct: The crystal model holds residues 24-176; also called Interleukin-20; IL-20b
T4 sequence: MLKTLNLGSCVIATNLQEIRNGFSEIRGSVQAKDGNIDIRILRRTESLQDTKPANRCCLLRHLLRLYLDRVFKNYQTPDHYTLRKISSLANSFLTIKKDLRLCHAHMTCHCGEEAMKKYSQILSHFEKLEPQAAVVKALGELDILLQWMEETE

T5: IL-22R1 (sIL-22R1DDQ) (Homo sapiens (Human), UniProt Q8N6P7 16-226, limits assumed)
T5 chain: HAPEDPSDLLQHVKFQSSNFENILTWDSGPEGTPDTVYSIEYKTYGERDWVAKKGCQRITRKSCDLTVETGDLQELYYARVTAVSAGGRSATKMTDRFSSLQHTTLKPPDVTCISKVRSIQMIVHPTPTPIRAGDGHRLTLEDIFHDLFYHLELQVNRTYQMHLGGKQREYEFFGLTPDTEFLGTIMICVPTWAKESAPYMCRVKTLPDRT

B1: IL22R1ddq-FCkh (MONO) (Fc fusion)
chain: AHAPEDPSDLLQHVKFQSSNFENILTWDSGPEGTPDTVYSIEYKTYGERDWVAKKGCQRITRKSCDLTVETGDLQELYYARVTAVSAGGRSATKMTDRFSSLQHTTLKPPDVTCISKVRSIQMIVHPTPTPIRAGDGHRLTLEDIFHDLFYHLELQVNRTYQMHLGGKQREYEFFGLTPDTEFLGTIMICVPTWAKESAPYMCRVKTLPDRTWTYSGSGGGGPSVFIFPPKIKDVLMISLSPIVTCVVVDVSEDDPDVQISWFVNNVEVHTAQTQTHREDYNSTLRVVSALPIQHQDWMSGKEFKCKVNNKDLPAPIERTISKPKGSVRAPQVYVLPPPCEEMTKKQVTLYCMVTDFMPEDIYVEWTNNGKTELNYKNTEPVLDSDGSYFMYSKLRVEKKNWVERNSYSCSVVHEGLHNHHTTKSFSRTPGKGLEASGGLNDIFEAQKIEWHEGTGHHHHHH
B2: IL-19/IL-20R2 binary complex (other)
chain 1: T3 sequence
chain 2: DEVAILPAPQQLSVLSTNMKHLLMWSPVIAPGETVYYSVEYQGEYESLYTSHIWIPSSWCSLTEGPECDVTDDITATVPYNLRVRATLGSQTSAWSILKHPFNRQSTILTRPGMEITKDGFHLVIELEDLGPQFEFLVAYWRREPGAEEHVKMVRSGGIPVHLETMEPGAAYCVKAQTFVKAIGRYSAFSQTECVEVQGEA
notes: IL-19 with IL-20R2 that carries no FC: amine coupled on the chip, or soluble; also called IL-19+soluble IL-20R2
B3: soluble IL-20R2 (receptor)
chain: B2 chain 2
notes: also called IL-20R2* (amine coupled IL-20R2)
B4: IL-20/IL-20R2 binary complex (other)
chain 1: T4 sequence
chain 2: B2 chain 2
notes: also called 20 + 20R2; IL-20+soluble IL-20R2
B5: IL-20R1-FC (Fc fusion)
chain: VPCVSGGLPKPANITFLSINMKNVLQWTPPEGLQGVKVTYTVQYFIYGQKKWLNKSECRNINRTYCDLSAETSDYEHQYYAKVKAIWGTKCSKWAESGRFYPFLETQIGPPEVALTTDEKSISVVLTAPEKWKRNPEDLPVSMQQIYSNLKYNVSVLNTKSNRTWSQCVTNHTLVLTWLEPNTLYCVHVESFVPGPPRRAQPSEKQCARTLKDQSSEFKAKGSGGGGPSVFIFPPKIKDVLMISLSPIVTCVVVDVSEDDPDVQISWFVNNVEVHTAQTQTHREDYNSTLRVVSALPIQHQDWMSGKEFKCKVNNKDLPAPIERTISKPKGSVRAPQVYVLPPPCEEMTKKQVTLYCMVTDFMPEDIYVEWTNNGKTELNYKNTEPVLDSDGSYFMYSKLRVEKKNWVERNSYSCSVVHEGLHNHHTTKSFSRTPGKGLEASGGLNDIFEAQKIEWHEGTGHHHHHH
notes: also called IL-20R-fc

Key:
IL-22 = molecular target: T1, IL-22; experiment: SPR, IL-22 as analyte over IL22R1ddq-FCkh (MONO) as ligand
IL-20R1 triple mutant M3 = molecular target: T2, IL-20R1 triple mutant M3; experiment: SPR, IL-19 co-injected with M3 over an IL-20R2 coupled Biacore chip
Procedure: FIGS. 9A-9D show the IL-20 site 3 interface is essential and distinct from other complexes. FIG. 9A is a ribbon diagram showing the site 3 interface between IL-20R1 and IL-20R2. FIG. 9B is a graph showing the importance of the site 3 interface in ternary complex formation. SPR sensograms obtained by injecting cytokines (IL-19 or IL-20, at 250 nM) and/or receptors (IL-20R1 or M3, at 425 nM), as labeled on the figure, over an IL-20R2 coupled biacore chip. Injection of IL-20+IL-20R1 results in a large response consistent with ternary complex formation. However, injection of IL-20+M3, an IL-20R1 site 3 mutant with S190^IL-20R1, W194^IL-20R1, and W207^IL-20R1 mutated to alanine drastically reduces binding due to disruption of ternary complex formation. Similar results are observed for complex formation by IL-19. FIG. 9C is a ribbon diagram of the superposition of the D2 domains of GHR site 1, IL-6R, and IL-20R1. The positions of the D2 domains of GHR site2, GP130, and IL-20R2 are shown, along with a schematic of the differences in their orientations. FIG. 9D is a ribbon diagram showing the putative model of the IL-22/IL-22R1/IL-10R2 complex based on the IL-20 ternary complex structure. […]

IL-19 [1] = molecular target: T3, IL-19; experiment: SPR (Biacore), IL-19 over amine coupled IL-20R2, 1:1 fit
Procedure: (§1) FIGS. 12A-12H are graphs showing IL19/IL-20 receptor interactions and complex stability. SPR sensorgrams, data fits (black lines), KD values, and residual errors obtained for complexes described at the top of each panel. Panels are labeled as injected soluble proteins, followed by a semicolon (:), then the protein coupled to chip surface, IL-20R1 or IL-20R2. FIGS. 12A and 12B show injection of IL-19 and IL-20 (max conc.=10 μM, 2 fold diluted to 0.625 μM) over IL-20R1. FIGS. 12C and 12D show injection of IL-19 (max conc.=500 nM, 2-fold diluted to 3.91 nM) or IL-20 (max conc.=2000 nM, 2-fold diluted to 62.5 nM) over IL-20R2. FIGS. 12E-12H show IL-19 and IL-20 (fixed at 250 nM) mixed with different concentrations of IL-20R1, or IL-22R1, (max conc.=1000 nM, 2-fold diluted to 7.81 nM) and injected over IL-20R2. To estimate R1 chain affinity/complex stability, the contribution of the ligand was removed by using the 250 nM IL-19, or IL-20, sensorgram as the blank subtraction. All sensorgrams were fit to 1:1 binding models.
Surface Plasmon Resonance Experiments SPR experiments were performed on Biacore T-100, and T-200, (GE healthcare, Waukesha, Wis.) systems. Soluble IL-20R2 was amine coupled (100-130 RU) to CM5 research grade biacore chips in 10 mM sodium acetate, pH 5.0. IL-20R1-FC and IL-20R2-FC were coupled (60-120 RU) to CM5 chips using an anti-FC Ab coupling kit using the manufacturer's instructions (GE healthcare, Waukesha, Wis.). All binding experiments were performed in running buffer consisting of 10 mM Hepes, pH 7.4, 150 mM NaCl, 0.04% P20, and 0.1 mg/mL bovine serum albumin (Sigma, St. Louis, Mo.). No regeneration was performed between sample injections on IL-20R2 amine-coupled surfaces. IL-20R1-FC and IL-20R2-FC surfaces were regenerated after each sample injection with a 3-minute injection of glycine, pH 1.7. Soluble proteins were injected for 75-90 seconds (30 uL/min) over the surfaces, and the dissociation phase was followed for 75-120 seconds depending on the stability of the complex being analyzed. […]

IL-20 [2] = molecular target: T4, IL-20; experiment: SPR (Biacore), IL-20 over amine coupled IL-20R2, equilibrium affinity (no rate constants)
IL-20R1-FC = molecular target: B5; experiment: SPR co-injection: IL-20 (1000-31.25 nM) with soluble IL-20R2 fixed at 500 nM over IL-20R1-FC surface, 1:1 fit
Procedure: (§2) FIGS. 13A-13D are graphs showing stability of IL-19 and IL-20 ternary complexes. Stability of the ternary complexes were determined by co-injecting IL-19+soluble IL-20R2 (FIGS. 13B and 13D), or IL-20+soluble IL-20R2 (FIGS. 13A and 13C), over an IL-20R1-FC coupled surface. The concentration of soluble IL-20R2 in these experiments was fixed at 500 nM. IL-19 and IL-20 concentrations varied from 1000 nM to 31.25 nM (2 fold dilutions). IL-19/soluble IL-20R2 and IL-20/IL-20R2 were also injected over an IL-22R1 coupled surface. The SPR sensorgrams are labeled as injected proteins, followed by a semicolon (:), then the protein coupled to the chip surface, IL-20R1 or IL-22R1. All sensograms yielding binding responses were fit to 1:1 binding models.
(§3) Surface Plasmon Resonance Experiments SPR experiments were performed on Biacore T-100, and T-200, (GE healthcare, Waukesha, Wis.) systems. Soluble IL-20R2 was amine coupled (100-130 RU) to CM5 research grade biacore chips in 10 mM sodium acetate, pH 5.0. IL-20R1-FC and IL-20R2-FC were coupled (60-120 RU) to CM5 chips using an anti-FC Ab coupling kit using the manufacturer's instructions (GE healthcare, Waukesha, Wis.). All binding experiments were performed in running buffer consisting of 10 mM Hepes, pH 7.4, 150 mM NaCl, 0.04% P20, and 0.1 mg/mL bovine serum albumin (Sigma, St. Louis, Mo.). No regeneration was performed between sample injections on IL-20R2 amine-coupled surfaces. IL-20R1-FC and IL-20R2-FC surfaces were regenerated after each sample injection with a 3-minute injection of glycine, pH 1.7. Soluble proteins were injected for 75-90 seconds (30 uL/min) over the surfaces, and the dissociation phase was followed for 75-120 seconds depending on the stability of the complex being analyzed. Where possible, the resultant sensorgrams were fit to 1:1 binding models using Biacore T-200 evaluation software version 1.

IL-22R1 (sIL-22R1DDQ) = molecular target: T5, IL-22R1 (sIL-22R1DDQ); experiment: SPR co-injection: IL-20 (1000-31.25 nM) with soluble IL-20R2 fixed at 500 nM over IL-22R1 coupled surface, 1:1 fit
Procedure: as §2, §3

IL-20 [3] = molecular target: T4, IL-20; experiment: SPR, site KD as listed in Table 5
IL-20 [4] = molecular target: T4, IL-20; experiment: SPR (Biacore), IL-20 (10-0.625 µM) over IL-20R1-fc captured by anti-FC Ab
Procedure: as §1
(§4) Surface Plasmon Resonance Experiments SPR experiments were performed on Biacore T-100, and T-200, (GE healthcare, Waukesha, Wis.) systems. […] Soluble proteins were injected for 75-90 seconds (30 uL/min) over the surfaces, and the dissociation phase was followed for 75-120 seconds depending on the stability of the complex being analyzed. […]

IL-19 [5] = molecular target: T3, IL-19; experiment: SPR, IL-19 (10 µM, 2-fold diluted to 0.625 µM) injected over IL-20R1 (IL-20R1-fc in Table 4)
Procedure: as §1, §4

With B1 as the binder, how does the Kd (IL-22) read?
Its Kd is 0.00334 µM.

Does B2 bind (IL-20R1 triple mutant M3)?
Result: no binding (tested: 425 nM M3 with 250 nM IL-19)

How did the Kd (IL-19 [1]) turn out when B3 was run?
Its Kd is 0.0363 µM.

And the koff (IL-19 [1])?
The koff was 0.0398 s⁻¹.

What about the kon (IL-19 [1]) of the same binder?
The kon was 1.1e+06 M⁻¹ s⁻¹.

And the Kd (IL-20 [2])?
Its Kd is 0.87 µM.

Which results are given for B4?
Kd (IL-20R1-FC): 1.07 µM; koff (IL-20R1-FC): 0.0168 s⁻¹; kon (IL-20R1-FC): 15700 M⁻¹ s⁻¹; Kd (IL-22R1 (sIL-22R1DDQ)): 1.16 µM; koff (IL-22R1 (sIL-22R1DDQ)): 0.238 s⁻¹; kon (IL-22R1 (sIL-22R1DDQ)): 205000 M⁻¹ s⁻¹

Which Kd (IL-20 [3]) does the source give for B5 here?
The Kd was about 9 µM.

And the Kd (IL-20 [4])?
Its Kd is about 9 µM.

Does B5 bind (IL-19 [5])?
Result: no binding (tested: 10 µM)
